We go through one molecule from PMC9855357, “Different Forms of Disorder in NMDA-Sensitive Glutamate Receptor Cytoplasmic Domains Are Associated with Differences in Condensate Formation” (Biomolecules, 2022).

This assay concerns the target T1, Full-length PSD-95 (post synaptic density protein of 95 kDa) (Rattus norvegicus, UniProt P31016 1-724).
T1 construct: PSD-95, Rattus norvegicus, full length
Briefly: co-sedimentation; ternary mixture 1:1:1 of PSD-95, CC-PBM and CTD2A or CTD2B, 20 µM each, 20 mM tris-HCl, 150 mM NaCl, pH 7.4, 25 °C for 5 min, 13,200 x g for 1 min; supernatant and pellet on SDS-PAGE, Coomassie. The conditions noted are these: both partners purified.

T1 sequence (P31016 whole entry): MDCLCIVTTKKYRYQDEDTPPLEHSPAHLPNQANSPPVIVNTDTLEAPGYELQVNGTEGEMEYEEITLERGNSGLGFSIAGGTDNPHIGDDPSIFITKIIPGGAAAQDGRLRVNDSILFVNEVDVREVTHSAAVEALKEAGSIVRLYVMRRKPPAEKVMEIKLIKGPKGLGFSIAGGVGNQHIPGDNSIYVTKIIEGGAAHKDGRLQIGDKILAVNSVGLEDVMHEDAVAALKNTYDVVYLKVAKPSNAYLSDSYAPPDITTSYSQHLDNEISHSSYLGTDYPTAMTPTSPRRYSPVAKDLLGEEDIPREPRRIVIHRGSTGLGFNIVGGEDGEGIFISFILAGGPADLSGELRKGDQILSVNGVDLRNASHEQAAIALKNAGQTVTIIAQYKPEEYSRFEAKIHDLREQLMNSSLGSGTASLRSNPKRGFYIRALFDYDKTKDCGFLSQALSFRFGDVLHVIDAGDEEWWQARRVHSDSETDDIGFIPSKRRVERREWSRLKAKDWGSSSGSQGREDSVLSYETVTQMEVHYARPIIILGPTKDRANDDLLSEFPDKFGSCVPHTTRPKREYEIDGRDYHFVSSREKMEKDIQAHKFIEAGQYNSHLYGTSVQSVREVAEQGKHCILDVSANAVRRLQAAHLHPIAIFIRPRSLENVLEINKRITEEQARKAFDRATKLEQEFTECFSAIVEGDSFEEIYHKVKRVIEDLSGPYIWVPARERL

B1: C-terminal domain 2 (CTD2) of GluN2B (residues 1259–1482) (domain or fragment, Rattus norvegicus, UniProt Q00960 1259-1482, looked up)
chain: SLQELDQPAAPVAVTSNASSTKYPQSPTNSKAQKKNRNKLRRQHSYDTFVDLQKEEAALAPRSVSLKDKGRFMDGSPYAHMFEMPAGESSFANKSSVPTAGHHHNNPGSGYMLSKSLYPDRVTQNPFIPTFGDDQCLLHGSKSYFFRQPTVAGASKTRPDFRALVTNKPVVVTLHGAVPGRFQKDICIGNQSNPCVPNNKNPRAFNGSSNGHVYEKLSSIESDV
notes: GluN2B subunit of the NMDA receptor, Rattus norvegicus, C-terminal domain 2, residues 1259-1482; Expressed from pPROEX HTB; the His tag was removed with TEV protease; also called CTD2B; GluN2B CTD2; not shown: His6, N-terminal, cleaved
Regarding B1, the binding result is “binds”.
